Measured values taken from paper PMC5240591.
Where two headings read alike, the source gives them in different places.

How the values were obtained:
Assay in all cases: fluorescence polarisation
[1] = target: T4 lysozyme mutant L99A, bimane-labelled at Cys151 (T151Bi) (bacteriophage T4) (UniProt P00720)
[2] = target: T4 lysozyme mutant L99A, bimane-labelled at Cys151 (T151Bi) (bacteriophage T4) (UniProt P00720); remark: listed apart in the source
[3] = target: T4 lysozyme mutant D70N, bimane-labelled at Cys151 (T151Bi) (bacteriophage T4) (UniProt P00720)
[4] = target: T4 lysozyme mutant L99A/A130S, bimane-labelled at Cys151 (T151Bi) (bacteriophage T4) (UniProt P00720)
[5] = target: T4 lysozyme mutant L99A, bimane-labelled at Cys151 (T151Bi) (bacteriophage T4) (UniProt P00720); remark: listed apart in the source
[6] = target: T4 lysozyme mutant L99A/A130S, bimane-labelled at Cys151 (T151Bi) (bacteriophage T4) (UniProt P00720); remark: listed apart in the source
[7] = target: T4 lysozyme mutant L99A, bimane-labelled at Cys151 (T151Bi) (bacteriophage T4) (UniProt P00720); remark: listed apart in the source
[8] = target: T4 lysozyme mutant L99A/A130S, bimane-labelled at Cys151 (T151Bi) (bacteriophage T4) (UniProt P00720); remark: listed apart in the source

Kd [1] [nM]	Kd [2] [nM]	Kd [3] [nM]	Kd [4] [nM]	stoichiometry N [2]	stoichiometry N [4]	Kd [5] [nM]	Kd [6] [nM]	stoichiometry N [1]	Kd [7] [nM]	stoichiometry N [7]	Kd [8] [nM]	Substance
1900	2430	14600	2370									human αA-crystallin (from UniProt P02489 1-173) (natural protein)
28000												human αB-crystallin (from UniProt P02511 1-175) (natural protein)
	17	6820	64	0.33	0.32							rat αA^ins-crystallin (from UniProt P24623 1-196) (natural protein)
38												triply phosphorylated analog (S15D/S78D/S82D) of human Hsp27 (from UniProt P04792 1-205) (natural protein)
71												triply phosphorylated analog (S19D/S45D/S59D) of human αB-crystallin (from UniProt P02511 1-175) (natural protein)
8320	8160	88900	6200		1.25	50700	20900					zebrafish αA-crystallin (from UniProt Q8UUZ6 1-173) (natural protein)
68	58	1870	63	0.47	0.65	920	210	0.65	12	0.64		zebrafish αBa-crystallin, population αBa-S (from UniProt Q9PUR2 1-168) (natural protein)
	1340	4850	120		0.33		4940				29000	zebrafish αBb-crystallin (from UniProt Q6DG35 1-165) (natural protein)
